In publication PMC5216127 (2017):

What was measured:
[1] = target: T1, GST-TCF4 (8–411, deletion 66–325) (human, biotin (only where coated on the streptavidin biosensor, Figure 5e)); assay: BLI
T1 chain: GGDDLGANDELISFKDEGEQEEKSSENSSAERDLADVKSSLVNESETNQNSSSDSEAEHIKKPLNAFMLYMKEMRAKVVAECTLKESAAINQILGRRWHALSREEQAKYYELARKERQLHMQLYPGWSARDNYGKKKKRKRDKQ

[2] = target: T2, GST-tagged TCF4 (amino acids 326–411) (human); assay: BLI
T2 chain: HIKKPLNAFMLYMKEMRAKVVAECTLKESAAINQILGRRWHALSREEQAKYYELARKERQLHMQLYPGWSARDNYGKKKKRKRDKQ

B1: TEAD4 (TEA, 38–105) (domain or fragment)
chain: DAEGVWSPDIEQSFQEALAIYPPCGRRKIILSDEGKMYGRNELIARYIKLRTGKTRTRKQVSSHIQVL
Kd [1]: 132 nM | Kd [2]: 288 nM
